Test results reported in the supplement of paper PMC7877785.
± gives the uncertainty stated by the source.

Test: self-splicing fitness, log relative to wild type (ln ratio); higher = more splicing; Tetrahymena group I intron in knt gene, E. coli kanamycin selection, DiMSum; sequences stand for … in CUCUCU…GGAGGGAAAAGUUAUCAGGCAUGCACCUGGUAGCUAGUCUUUAAACCAAUAGAUUGCAUCGGUUUAAAAGGCAAGACCGUCAAAUUGCGGGAAAGGGGUCAACAGCCGUUCAGUACCAAGUCUCAGGGGAAACUUUGAGAUGGCCUUGCAAAGGGUAUGGUAAUAAGCUGACGGACAUGGUCCUAACCACGCAGCCAAGUCCUAAGUCAACAGAUCUUCUGUUGAUAUGGAUGCAGUUCACAGACUAAAUGUCGGUCGGGGAAGAUGUAUUCUUCUCAUAAGAUAUAGUCGGACCUCUCCUUAAUGGGAGCUAGCGGAUGAAGUGAUGCAACACUGGAGCCGCUGGGAACUAAUUUGUAUGCGAAAGUAUAUUGAUUAGUUUUGGAGUACUCGUGGUCG
Outline: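 DiMSum derived fitness as the error-weighted combination of fold changes across replicates, kanamycin versus no kanamycin, normalised to wild type. E. coli BL21(DE3) held the library, which randomised all eight P1ex-region intron nucleotides within the knt kanamycin-resistance gene on pET-22b(+). Six replicate transformations grew overnight at 37°C or 30°C on LB agar with or without 25 μg/mL kanamycin, also containing 100 μg/mL carbenicillin, 50 μM IPTG and 0.2% rhamnose, and pooled colonies were amplicon-sequenced on an Illumina HiSeq 2500.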

Row | Sequence | self-splicing fitness (ln) (30 °C) | self-splicing fitness (ln) (37 °C)
1 | ACAGAGCAAUAUUACGCCUA | -1.68 ± 0.23 | -1.93 ± 0.22
2 | ACAGAGCAAUAUUACGCGUA | -3.21 ± 0.2 | -2.91 ± 0.23
3 | ACAGAGCAAUAUUACGCUAG | -3.28 ± 0.19 | -2.61 ± 0.18
4 | ACAGAGCAAUAUUACGCUUA | -2.01 ± 0.22 | -1.25 ± 0.16
5 | ACAGAGCAAUAUUACGGUCA | -2.73 ± 0.22 | -0.944 ± 0.17
6 | ACAGAGCAAUAUUACGGUGC | -3.86 ± 0.44 | -2.09 ± 0.31
7 | ACAGAGCAAUAUUACGUCGG | -3.64 ± 0.16 | -3.58 ± 0.23
8 | ACAGAGCAAUAUUACGUCUU | -1.48 ± 0.18 | -1.98 ± 0.18
9 | ACAGAGCAAUAUUACGUGGA | -3.67 ± 0.31 | -2.88 ± 0.31
10 | ACAGAGCAAUAUUACGUUUC | – | -2.31 ± 0.39
11 | ACAUAGCAAUAUUACGAAGC | – | -1.85 ± 0.42
12 | ACAUAGCAAUAUUACGACCG | -0.782 ± 0.098 | -0.154 ± 0.14
13 | ACAUAGCAAUAUUACGAGCA | -2.89 ± 0.12 | -1.1 ± 0.11
14 | ACAUAGCAAUAUUACGAGGU | -3.59 ± 0.16 | -3.3 ± 0.15
15 | ACAUAGCAAUAUUACGAUGG | -1.64 ± 0.088 | -0.176 ± 0.11
16 | ACAUAGCAAUAUUACGAUUG | -2.62 ± 0.1 | -0.942 ± 0.11
17 | ACAUAGCAAUAUUACGCCCA | -0.769 ± 0.13 | -0.85 ± 0.15
18 | ACAUAGCAAUAUUACGCGCA | -0.42 ± 0.076 | -0.818 ± 0.088
19 | ACAUAGCAAUAUUACGCGGU | -3.36 ± 0.17 | -2.86 ± 0.26
20 | ACAUAGCAAUAUUACGCUUG | -1.76 ± 0.11 | -1.28 ± 0.14
21 | ACAUAGCAAUAUUACGGAGG | -3 ± 0.17 | -0.703 ± 0.15
22 | ACAUAGCAAUAUUACGGUAC | -4.24 ± 0.33 | -2.51 ± 0.27
23 | ACAUAGCAAUAUUACGGUCG | -1.62 ± 0.088 | -0.223 ± 0.1
24 | ACAUAGCAAUAUUACGUGGG | -3.52 ± 0.12 | -2.75 ± 0.12

Row | Sequence | self-splicing fitness (ln) (30 °C) | self-splicing fitness (ln) (37 °C)
25 | ACAUAGCAAUAUUACGUGUC | -4.9 ± 0.41 | -2.72 ± 0.28
26 | ACCAAGCAAUAUUACGACGG | -0.86 ± 0.08 | 0.495 ± 0.1
27 | ACCAAGCAAUAUUACGAGCC | -3.61 ± 0.2 | -1.08 ± 0.15
28 | ACCAAGCAAUAUUACGAGUG | -2.09 ± 0.052 | -1.14 ± 0.062
29 | ACCAAGCAAUAUUACGAUAU | -3.22 ± 0.11 | -2.17 ± 0.095
30 | ACCAAGCAAUAUUACGAUGU | -1.7 ± 0.057 | -1.03 ± 0.073
31 | ACCAAGCAAUAUUACGCAAG | -2.05 ± 0.072 | -2.12 ± 0.12
32 | ACCAAGCAAUAUUACGCAUU | -2.81 ± 0.085 | -1.26 ± 0.077
33 | ACCAAGCAAUAUUACGCCCA | -1.06 ± 0.13 | -0.545 ± 0.17
34 | ACCAAGCAAUAUUACGCCUG | -2.05 ± 0.18 | -2.31 ± 0.25
35 | ACCAAGCAAUAUUACGCGUG | -2.41 ± 0.083 | -1.19 ± 0.07
36 | ACCAAGCAAUAUUACGGCCU | -0.444 ± 0.072 | -0.31 ± 0.083
37 | ACCAAGCAAUAUUACGGUGC | -2.72 ± 0.14 | -2.12 ± 0.23
38 | ACCAAGCAAUAUUACGUACU | -0.582 ± 0.049 | -0.135 ± 0.071
39 | ACCAAGCAAUAUUACGUAUA | -3.38 ± 0.16 | -2.36 ± 0.12
40 | ACCAAGCAAUAUUACGUCAC | -3.68 ± 0.47 | -2.89 ± 0.27
41 | ACCAAGCAAUAUUACGUCCU | -0.777 ± 0.058 | 0.0592 ± 0.075
42 | ACCAAGCAAUAUUACGUGAA | -2.5 ± 0.08 | -1.54 ± 0.091
43 | ACCAAGCAAUAUUACGUGAG | -1.19 ± 0.07 | -0.649 ± 0.086
44 | ACCAAGCAAUAUUACGUGUC | -2.94 ± 0.11 | -3.34 ± 0.18
45 | ACCAAGCAAUAUUACGUUUA | -2.41 ± 0.12 | -1.82 ± 0.11
46 | ACCCAGCAAUAUUACGAAAG | -2.85 ± 0.13 | -1.47 ± 0.17
47 | ACCCAGCAAUAUUACGAAGG | -1.71 ± 0.071 | -0.892 ± 0.1
48 | ACCCAGCAAUAUUACGAAUA | -2.29 ± 0.14 | -1.19 ± 0.12

Row | Sequence | self-splicing fitness (ln) (30 °C) | self-splicing fitness (ln) (37 °C)
49 | ACCCAGCAAUAUUACGACUU | 0.148 ± 0.042 | 0.908 ± 0.062
50 | ACCCAGCAAUAUUACGAGCC | -3.18 ± 0.15 | -1.54 ± 0.14
51 | ACCCAGCAAUAUUACGAUGU | -0.18 ± 0.041 | -0.0583 ± 0.052
52 | ACCCAGCAAUAUUACGCAAA | -1.21 ± 0.065 | -0.816 ± 0.068
53 | ACCCAGCAAUAUUACGCACA | -1.56 ± 0.081 | -0.306 ± 0.11
54 | ACCCAGCAAUAUUACGCACC | -1.17 ± 0.1 | -0.52 ± 0.16
55 | ACCCAGCAAUAUUACGCGCU | -1.91 ± 0.097 | -1.36 ± 0.11
56 | ACCCAGCAAUAUUACGGCAA | -0.219 ± 0.056 | -0.263 ± 0.068
57 | ACCCAGCAAUAUUACGGCAG | -3.84 ± 0.21 | -2.74 ± 0.18
58 | ACCCAGCAAUAUUACGGGGG | -3.46 ± 0.17 | -2.43 ± 0.15
59 | ACCCAGCAAUAUUACGGGUA | -2.54 ± 0.11 | -1.66 ± 0.084
60 | ACCCAGCAAUAUUACGGUAA | -1.26 ± 0.09 | -0.477 ± 0.087
61 | ACCCAGCAAUAUUACGUAUA | -2.2 ± 0.092 | -1.2 ± 0.085
62 | ACCCAGCAAUAUUACGUGCA | -0.703 ± 0.067 | -0.601 ± 0.072
63 | ACCGAGCAAUAUUACGAAAU | -2.68 ± 0.27 | -2.76 ± 0.34
64 | ACCGAGCAAUAUUACGACAG | -2.88 ± 0.17 | -2.41 ± 0.39
65 | ACCGAGCAAUAUUACGAGAA | – | -1.8 ± 0.29
66 | ACCGAGCAAUAUUACGAUUG | -3.69 ± 0.17 | -2.02 ± 0.18
67 | ACCGAGCAAUAUUACGCCAU | -4.46 ± 0.36 | -2.05 ± 0.22
68 | ACCGAGCAAUAUUACGCCUG | -3.61 ± 0.24 | -2.44 ± 0.17
69 | ACCGAGCAAUAUUACGCUCU | -0.43 ± 0.14 | -1.25 ± 0.16
70 | ACCGAGCAAUAUUACGCUUG | -3.65 ± 0.21 | -2.17 ± 0.26
71 | ACCGAGCAAUAUUACGGAAC | -3.03 ± 0.29 | -1.63 ± 0.21
72 | ACCGAGCAAUAUUACGGGAC | -2.88 ± 0.13 | -2.49 ± 0.18

Row | Sequence | self-splicing fitness (ln) (30 °C) | self-splicing fitness (ln) (37 °C)
73 | ACCGAGCAAUAUUACGGGCU | -3.3 ± 0.16 | -2.59 ± 0.19
74 | ACCGAGCAAUAUUACGGGGA | -1.87 ± 0.1 | -1.65 ± 0.1
75 | ACCGAGCAAUAUUACGGGGG | -3.8 ± 0.18 | -3.18 ± 0.2
76 | ACCGAGCAAUAUUACGGGGU | -3.7 ± 0.17 | -2.46 ± 0.17
77 | ACCGAGCAAUAUUACGGUAU | -3.76 ± 0.2 | -1.81 ± 0.14
78 | ACCGAGCAAUAUUACGUAGC | -3.46 ± 0.16 | -1.61 ± 0.15
79 | ACCGAGCAAUAUUACGUUCC | -2.7 ± 0.26 | -1.66 ± 0.23
80 | ACCGAGCAAUAUUACGUUUA | -3.4 ± 0.27 | -2.39 ± 0.18
81 | ACCUAGCAAUAUUACGAAGA | -2.01 ± 0.19 | -1.77 ± 0.13
82 | ACCUAGCAAUAUUACGACAG | -2 ± 0.089 | -1.34 ± 0.12
83 | ACCUAGCAAUAUUACGACGG | -1.3 ± 0.089 | -0.541 ± 0.14
84 | ACCUAGCAAUAUUACGAUAC | -3.47 ± 0.25 | -1.65 ± 0.2
85 | ACCUAGCAAUAUUACGAUUU | -0.879 ± 0.064 | -0.0104 ± 0.079
86 | ACCUAGCAAUAUUACGCAGA | -2.23 ± 0.09 | -1.11 ± 0.082
87 | ACCUAGCAAUAUUACGCGGA | -1.04 ± 0.085 | -0.0825 ± 0.086
88 | ACCUAGCAAUAUUACGCUUA | -1.73 ± 0.11 | -0.883 ± 0.1
89 | ACCUAGCAAUAUUACGCUUG | -3.5 ± 0.16 | -2.04 ± 0.16
90 | ACCUAGCAAUAUUACGGACU | -0.424 ± 0.059 | 0.508 ± 0.069
91 | ACCUAGCAAUAUUACGGAUA | -1.65 ± 0.11 | -1.59 ± 0.099
92 | ACCUAGCAAUAUUACGGAUU | -1.23 ± 0.072 | 0.134 ± 0.088
93 | ACCUAGCAAUAUUACGGGUG | -1.47 ± 0.071 | -1.1 ± 0.087
94 | ACCUAGCAAUAUUACGGUGA | -1.86 ± 0.079 | -0.814 ± 0.074
95 | ACCUAGCAAUAUUACGUACA | -1.31 ± 0.14 | -0.964 ± 0.17
96 | ACCUAGCAAUAUUACGUAUC | -2.83 ± 0.083 | -1.85 ± 0.1
